The source of these data is paper doi:10.1101/2020.02.28.970301.

Assay [1] concerns the target MBP-RAMP1.24-111-(GS)5-CLR.29-144-H6 (human) (UniProt O60894). Nature of the assay: fluorescence polarisation.
For assay [2], the target named is MBP-RAMP2.55-140[L106R]-(GS)5-CLR.29-144-H6 (human) (UniProt O60895). Nature of the assay: fluorescence polarisation.
Assay [3] concerns the target RAMP2:CLR full-length receptor complex (AM1 receptor) (human) (UniProt O60895).
Assay [4] deals with MBP-RAMP3.25-111-(GS)5-CLR.29-144-H6 (human) (UniProt O60896). As to the kind of experiment: fluorescence polarisation.
Assay [5] concerns the target RAMP1:CLR full-length receptor complex (CGRP receptor) (human) (UniProt O60894).
In assay [6] the target is RAMP3:CLR full-length receptor complex (AM2 receptor) (human) (UniProt O60896).
The target in assay [7] is T1, MBP-RAMP1.24-111-(GS)5-CLR.29-144-H6 (human), O60894.
T1 chain: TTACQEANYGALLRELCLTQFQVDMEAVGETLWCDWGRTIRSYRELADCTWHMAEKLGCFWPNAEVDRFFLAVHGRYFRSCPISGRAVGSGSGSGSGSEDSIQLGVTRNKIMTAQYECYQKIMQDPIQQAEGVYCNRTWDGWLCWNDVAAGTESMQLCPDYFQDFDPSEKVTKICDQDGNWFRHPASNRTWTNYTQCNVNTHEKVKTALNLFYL
Nature of the assay: fluorescence polarisation.

Chain of RAMP2:CLR full-length receptor complex (AM1 receptor) (human) (O60895 43-175, chain 1 of 2): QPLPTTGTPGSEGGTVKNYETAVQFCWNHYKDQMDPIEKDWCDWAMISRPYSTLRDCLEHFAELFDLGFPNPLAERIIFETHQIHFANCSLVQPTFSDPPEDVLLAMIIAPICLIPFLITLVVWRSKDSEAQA
Chain of RAMP2:CLR full-length receptor complex (AM1 receptor) (human) (Q16602 23-461, chain 2 of 2, further chain): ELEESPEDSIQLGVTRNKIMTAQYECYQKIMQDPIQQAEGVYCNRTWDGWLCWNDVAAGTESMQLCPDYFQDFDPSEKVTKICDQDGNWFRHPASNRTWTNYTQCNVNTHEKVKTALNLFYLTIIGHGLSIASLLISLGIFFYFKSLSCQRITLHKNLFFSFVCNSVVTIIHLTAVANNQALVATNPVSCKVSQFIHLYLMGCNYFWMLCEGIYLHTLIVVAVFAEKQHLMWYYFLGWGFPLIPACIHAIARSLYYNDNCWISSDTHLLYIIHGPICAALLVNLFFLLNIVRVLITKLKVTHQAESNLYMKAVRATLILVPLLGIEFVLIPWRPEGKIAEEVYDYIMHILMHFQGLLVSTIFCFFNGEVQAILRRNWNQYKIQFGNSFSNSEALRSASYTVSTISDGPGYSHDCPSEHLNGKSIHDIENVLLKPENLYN
Chain of RAMP3:CLR full-length receptor complex (AM2 receptor) (human) (O60896 24-148, chain 1 of 2): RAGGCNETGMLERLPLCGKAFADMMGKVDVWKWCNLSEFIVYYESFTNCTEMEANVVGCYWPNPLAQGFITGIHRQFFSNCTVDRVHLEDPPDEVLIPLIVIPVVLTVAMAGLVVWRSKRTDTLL
Chain of RAMP3:CLR full-length receptor complex (AM2 receptor) (human) (Q16602 23-461, chain 2 of 2, further chain): as the sequence (Q16602 23-461, chain 2 of 2, further chain) above
Chain of RAMP1:CLR full-length receptor complex (CGRP receptor) (human) (O60894 27-148, chain 1 of 2): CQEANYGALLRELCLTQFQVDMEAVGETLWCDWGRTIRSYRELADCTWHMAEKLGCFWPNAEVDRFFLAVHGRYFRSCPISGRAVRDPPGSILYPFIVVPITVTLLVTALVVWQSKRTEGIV
Chain of RAMP1:CLR full-length receptor complex (CGRP receptor) (human) (Q16602 23-461, chain 2 of 2, further chain): as the sequence (Q16602 23-461, chain 2 of 2, further chain) above

Consider AM2/IMD S43G/H45W (peptide), for which the pKI in assay [1] came to 4.75.
In turn, AM S48G (peptide) displayed a fold increase in affinity against wild-type AM in assay [2] of 5 fold.
For the molecule AM(22-52) S48G/Q50W (peptide), in assay [3], the antagonism of cAMP signalling in COS-7 cells, apparent KB (Gaddum/Schild) is 80 pM.
AM(37-52) S45R/K46A/S48G/Q50W (peptide): the fold decrease in affinity against S45R/K46L/S48G/Q50W in assay [2], in assay [1] and in assay [4] was 10 fold throughout.
In the case of AM(37-52) S45R/K46L/Q50W (peptide), the fold increase in affinity against K46L/Q50W in assay [2] is 17 fold; in assay [1] it was 5 fold; in assay [4] it was 5 fold.
With AM(37-52) S48G/Q50W (peptide), the fold increase in affinity against Q50W in assay [2] came out at 13 fold; in assay [1], 6 fold; in assay [4], 6 fold.
“CGRP(8-37) N31D/S34P/K35W/A36S (peptide)”: the cAMP antagonism in COS-7 cells; estimated receptor residence time is 12.5 h in assay [5], 11 h in assay [6] and 5.2 h in assay [3].

B1: AM2/IMD H45W (peptide)
chain: GPAGRQDSAPVDPSSPWSY
modifications: not checked
The molecule B1 showed a pKI in assay [7] of 6.08.
